In article PMC12748774:

Tests used:
[1] = molecular target: JEV CC_FLE sE (G5C/G102C), disulfide-linked dimer (Japanese encephalitis virus (SA-14-14-2 strain)); experiment: SEC; purified sE proteins on a Superose 6 column
[2] = molecular target: JEV CC_FLE sE (G5C/G102C), disulfide-linked dimer (Japanese encephalitis virus (SA-14-14-2 strain)); experiment: cryo-EM structure
[3] = molecular target: WNV CC_FLE sE (G5C/G102C), dimer (West Nile virus); experiment: SEC; purified sE proteins on a Superose 6 column
[4] = molecular target: WNV CC_FLE sE (G5C/G102C), dimer (West Nile virus); experiment: cryo-EM structure
[5] = molecular target: ZIKV CC_Core sE (A264C), disulfide-linked dimer (Zika virus (Brazilian Zika SPH2015 strain)); experiment: SEC; purified sE proteins on a Superose 6 column
[6] = molecular target: ZIKV CC_Core sE (A264C), disulfide-linked dimer (Zika virus (Brazilian Zika SPH2015 strain)); experiment: cryo-EM structure
[7] = molecular target: ZIKV CC_Core sE (A264C), disulfide-linked dimer (Zika virus (Brazilian strain SPH2015)); experiment: SEC
[8] = molecular target: ZIKV CC_Core sE (A264C), disulfide-linked dimer (Zika virus (Brazilian strain SPH2015)); experiment: SDS-PAGE with and without the reducing reagent DTT
[9] = molecular target: ZIKV CC_FLE sE (G5C/G102C), disulfide-linked dimer (Zika virus (Brazilian Zika SPH2015 strain)); experiment: SEC; purified sE proteins on a Superose 6 column
[10] = molecular target: ZIKV CC_FLE sE (G5C/G102C), disulfide-linked dimer (Zika virus (Brazilian Zika SPH2015 strain)); experiment: cryo-EM structure
[11] = molecular target: ZIKV CC_FLE sE (G5C/G102C), disulfide-linked dimer (Zika virus (Brazilian strain SPH2015)); experiment: SEC
[12] = molecular target: ZIKV CC_FLE sE (G5C/G102C), disulfide-linked dimer (Zika virus (Brazilian strain SPH2015)); experiment: SDS-PAGE with and without the reducing reagent DTT

Measured: stoichiometry N

JEV CC_FLE sE (G5C/G102C), disulfide-linked dimer (domain or fragment)
2: [1] | [2]

WNV CC_FLE sE (G5C/G102C), dimer (domain or fragment)
2: [3] | [4]

ZIKV CC_Core sE (A264C), disulfide-linked dimer (domain or fragment)
2: [5] | [6] | [7] | [8]

ZIKV CC_FLE sE (G5C/G102C), disulfide-linked dimer (domain or fragment)
2: [9] | [10] | [11] | [12]
